Measured values from patent US20120093724.

Assays:
[1] = molecular target: semenogelin II (UniProt Q02383)
[2] = molecular target: semenogelin I (UniProt P04279)
semenogelin I, sequence (P04279 24-462): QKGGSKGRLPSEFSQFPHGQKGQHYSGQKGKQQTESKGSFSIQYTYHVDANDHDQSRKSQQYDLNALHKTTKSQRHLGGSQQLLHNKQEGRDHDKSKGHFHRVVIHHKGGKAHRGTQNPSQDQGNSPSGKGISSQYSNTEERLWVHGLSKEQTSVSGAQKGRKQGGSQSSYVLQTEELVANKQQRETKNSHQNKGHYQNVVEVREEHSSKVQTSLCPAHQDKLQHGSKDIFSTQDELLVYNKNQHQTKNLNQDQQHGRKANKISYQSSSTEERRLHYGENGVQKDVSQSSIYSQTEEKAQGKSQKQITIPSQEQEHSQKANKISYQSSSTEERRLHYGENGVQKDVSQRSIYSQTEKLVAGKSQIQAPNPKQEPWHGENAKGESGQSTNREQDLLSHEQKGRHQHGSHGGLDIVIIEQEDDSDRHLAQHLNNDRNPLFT

semenogelin II, sequence (Q02383 24-582): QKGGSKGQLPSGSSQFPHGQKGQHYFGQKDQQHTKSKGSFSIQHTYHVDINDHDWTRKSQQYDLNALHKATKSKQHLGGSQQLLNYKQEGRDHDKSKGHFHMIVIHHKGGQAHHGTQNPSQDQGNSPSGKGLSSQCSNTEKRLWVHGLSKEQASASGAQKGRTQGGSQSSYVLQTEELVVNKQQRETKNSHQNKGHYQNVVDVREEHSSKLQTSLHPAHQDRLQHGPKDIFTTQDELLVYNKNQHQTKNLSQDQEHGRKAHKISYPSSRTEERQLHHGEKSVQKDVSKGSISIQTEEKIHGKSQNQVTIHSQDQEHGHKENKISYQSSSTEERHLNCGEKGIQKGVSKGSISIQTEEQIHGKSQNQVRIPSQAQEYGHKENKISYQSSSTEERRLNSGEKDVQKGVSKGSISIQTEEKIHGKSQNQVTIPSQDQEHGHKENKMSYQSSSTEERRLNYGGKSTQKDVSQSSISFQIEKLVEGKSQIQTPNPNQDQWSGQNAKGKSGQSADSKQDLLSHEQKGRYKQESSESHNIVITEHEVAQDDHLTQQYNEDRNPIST

human glandular kallikrein 2 was tested, and the number of cleavage sites sequenced (cleavage sites) [1] was 7, the “proteolytic cleavage (fragments by HPLC)” value [1] was “Cleavage of either Sg I or Sg II with hK2 results in generation of a multitude of peptides” and the number of cleavage sites sequenced (cleavage sites) [2] was 4. The “proteolytic cleavage (fragments by HPLC)” value [2] was “Cleavage of either Sg I or Sg II with hK2 results in generation of a multitude of peptides”.
